# From patent US20230011916A1, “METHODS OF CANCER TREATMENT USING ANTI-OX40 ANTIBODIES IN COMBINATION WITH PI3 KINASE DELTA INHIBITORS” (BEIGENE, LTD., priority 2019, published 2023)
# Where a chain is given by its changes, count along the chain named.
# B1: ch445: Mu445 variable domains fused to human IgG1wt/kappa constant regions (antibody, V domains shown)
# VH: EVQLQQSGPELVKPGASVKMSCKASGYKFTSYIIHWVKQKPGQGLEWIGYINPYNDGTRYNEKFKGKATLTSDKSSSTAYMEYSSLTSEDSAVYYCARGYYGSSYAMDYWGQGTSVTVSS
# VL: DIQMTQTTSSLSASLGDRVTISCSASQGISNYLNWYQQKPDGTIKLLIYDTSTLYSGVPSRFSGSGSGTDYFLTISNLEPEDIATYYCQQYSKLPYTFGGGTKLEKK
# B2: OX86: rat anti-mouse OX40 antibody (WO2016/057667) engineered with mouse IgG2a constant regions; VH SEQ ID NO: 32, VL SEQ ID NO: 33 (antibody, V domains shown)
# VH: QVQLKESGPGLVQPSQTLSLTCTVSGFSLTGYNLHWVRQPPGKGLEWMGRMRYDGDTYYNSVLKSRLSISRDTSKNQVFLKMNSLQTDDTAIYYCTRDGRGDSFDYWGQGVMVTVSS
# VL: DIVMTQGALPNPVPSGESASITCRSSQSLVYKDGQTYLNWFLQRPGQSPQLLTYWMSTRASGVSDRFSGSGSGTYFTLKISRVRAEDAGVYYCQQVREYPFTFGSGTKLEIK
# modifications: mouse IgG2a constant regions
# B3: 445-1: humanized anti-OX40 antibody, human IgG1 wt, VH SEQ ID NO: 14, VL SEQ ID NO: 16 (antibody, V domains shown)
# VH: QVQLVQSGAEVKKPGSSVKVSCKASGYKFTSYIIHWVRQAPGQGLEWMGYINPYNDGTRYNQKFQGRVTLTSDKSTSTAYMELSSLRSEDTAVYYCARGYYGSSYAMDYWGQGTTVTVSS
# VL: DIQMTQSPSSLSASVGDRVTITCSASQGISNYLNWYQQKPGKAIKLLIYDTSTLYSGVPSRFSGSGSGTDYTLTISSLQPEDFATYYCQQYSKLPYTFGGGTKVEIK
# modifications: human IgG1 constant regions; 445-1 VH pro; 445-1 VK pro
# B4: 445-2: humanized anti-OX40 antibody, VH SEQ ID NO: 20, VL SEQ ID NO: 22 (antibody, V domains shown)
# VH: B3 VH with D56E, N61A, S72A
# VL: B3 VL with T51A, Y71F
# modifications: 445-2 VH pro; 445-2 VK pro
# Key:
# [1] = target: T1, recombinant OX40 protein with a His tag (Homo sapiens, UniProt P43489); experiment: Binding kinetics and affinity of anti-OX40 antibodies by SPR (BIAcore T-200)
# T1 construct: His tag; purchased Sino Biological 10481-H08H
# T1 sequence (P43489 29-277): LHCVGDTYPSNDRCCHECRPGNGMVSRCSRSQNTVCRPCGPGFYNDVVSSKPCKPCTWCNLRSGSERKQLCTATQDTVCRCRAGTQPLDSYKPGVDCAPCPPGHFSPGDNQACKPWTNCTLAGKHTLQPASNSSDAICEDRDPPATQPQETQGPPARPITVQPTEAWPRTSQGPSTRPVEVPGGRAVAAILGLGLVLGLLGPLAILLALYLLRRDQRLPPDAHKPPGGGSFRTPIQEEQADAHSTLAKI
# Text: The anti-OX40 antibodies were characterized for their binding kinetics and affinity by SPR assays using BIAcore™ T-200 (GE Life Sciences). Briefly, anti-human IgG antibody was immobilized on an activated CM5 biosensorchip (Cat: BR100530, GE Life Sciences). An antibody with human IgG Fc region was flowed over the chip surface and captured by anti-human IgG antibody. Then a serial dilution of recombinant OX40 protein with a His tag (Cat: 10481-H08H, Sino Biological) was flowed over the chip surface and changes in surface plasmon resonance signals were analyzed to calculate the association rates (ka) and dissociation rates (kd) by using the one-to-one Langmuir binding model (BIA Evaluation Software, GE Life Sciences). The equilibrium dissociation constant (KD) was calculated as the ratio kd/ka.
# EMT-6 cells = experiment: EMT-6 syngeneic breast cancer model in BALB/c mice; type: in vivo, mouse
# Description: EMT-6 cells are of murine breast cancer origin. Female BALB/c mice were implanted intramammary with 5×10^4 EMT-6 cells per 100 μL PBS mice in the second right papilla. After inoculation, mice were randomized into 4 groups with 25 animals in each group according to inoculation order.
# The mice were treated with vehicle (0.5% MC), OX86 (a murine specific anti-OX40 antibody), Compound 1 (PI3Kdelta inhibitor), and the combination of OX86 and Compound 1, respectively. OX86 was given at 0.4 mg/kg once per week (QW) by intraperitoneal (i.p.) injection, and Compound 1 was administered at 30 mg/kg twice per day (BID) by oral gavage (p.o.). Tumor volume was determined twice weekly and tumor growth inhibition was determined using the formula described in Example 14 above.
# [2] = target: T2, interaction between OX40 and OX40 ligand (Mus musculus, UniProt P47741); conditions: reported in the scientific literature; cited from earlier work
# T2 sequence (P47741 20-272): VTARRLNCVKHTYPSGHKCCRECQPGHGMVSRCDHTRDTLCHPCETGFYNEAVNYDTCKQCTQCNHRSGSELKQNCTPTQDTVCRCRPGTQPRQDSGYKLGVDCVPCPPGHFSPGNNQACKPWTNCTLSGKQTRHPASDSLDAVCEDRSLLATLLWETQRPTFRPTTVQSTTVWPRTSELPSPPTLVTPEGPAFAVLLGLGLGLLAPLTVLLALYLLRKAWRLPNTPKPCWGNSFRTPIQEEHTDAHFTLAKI
# T2 sequence (P43488 1-198 partner): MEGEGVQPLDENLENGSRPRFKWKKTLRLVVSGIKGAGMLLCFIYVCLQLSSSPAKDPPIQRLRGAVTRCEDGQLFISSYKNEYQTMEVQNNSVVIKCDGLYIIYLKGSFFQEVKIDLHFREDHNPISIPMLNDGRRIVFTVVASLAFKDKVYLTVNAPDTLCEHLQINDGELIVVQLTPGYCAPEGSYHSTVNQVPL
# A20 cells = experiment: A20 syngeneic B cell lymphoma model in BALB/c mice; type: in vivo, mouse; conditions: Compound 1 10 mg/kg p.o.
# Description: A20 cells are of B cell lymphoma origin. Female BALB/c mice were subcutaneously implanted with 1×10^5 A20 cells in 150 μL PBS mice in the right flank. After inoculation, mice were randomized into 4 groups with 25 animals in each group according to inoculation order. The mice were treated with vehicle (0.5% MC), OX86 (a murine specific anti-OX40 antibody), Compound 1, and the combination of OX86 and Compound 1. OX86 was given at 0.4 mg/kg once a week by intraperitoneal injection, and Compound 1 was administered at 10 mg/kg twice a day by oral gavage. Tumor volume was determined twice weekly and the TGI calculated as described above.
# [3] = OX86 0.4 mg/kg QW i.p., Compound 1 30 mg/kg BID p.o.
Molecule,KA ([1]; Mean) [M⁻¹],KA ([1]; Test 1) [M⁻¹],ka ([1]; Test 1) [M⁻¹ s⁻¹],kd ([1]; Test 1) [s⁻¹],KA ([1]; Test 2) [M⁻¹],ka ([1]; Test 2) [M⁻¹ s⁻¹],kd ([1]; Test 2) [s⁻¹],Mean Tumor Volume on Day 22 (mean ± SEM) (EMT-6 cells; [3]) [mm^3],Tumor Free Animal (EMT-6 cells; [3]) [%],"TGI on Day 22 (EMT-6 cells; OX86 0.4 mg/kg QW×4 i.p., Compound 1 30 mg/kg BID×22 p.o.) [%]",Blocking of the interaction between OX40 and OX40 ligand [2],Mean Tumor Volume on Day 26 (mean ± SEM) (A20 cells; OX86 0.4 mg/kg QW i.p.) [mm^3],Tumor Free Animals at Day 47 (A20 cells; OX86 0.4 mg/kg QW i.p.) [%],TGI on Day 26 (A20 cells; OX86 0.4 mg/kg QW×4 i.p.) [%]
B1,1.41e+08,1.22e+08,174000,0.00143,1.59e+08,265000,0.00167,,,,,,,
B2,,,,,,,,210.5 ± 43.9,40,79,does not block the interaction between OX40 and OX40 ligand,53.4 ± 28.7,80,93
B3,5.9e+07,5.6e+07,156000,0.00277,6.1e+07,237000,0.00389,,,,,,,
B4,7.5e+07,7.1e+07,276000,0.0039,7.8e+07,206000,0.00264,,,,,,,
